Experiments:
HLA-A*0201 [1] = molecular target: T1, HLA-A*0201 (human); assay: T2 cells loaded with 100 µM peptide, Brefeldin A, decay of HLA-A*0201 labelling (mAb BB7.2) over 0-6 h
T1 construct: whole, on cells; MHC class I molecule on T2 cells; also called HLA-A2
Experimental: (§1) The protocol used to measure relative affinity (RA) is described in detail elsewhere (Tourdot et al., 2000). […] The cells were then treated with Brefeldin A for 1 h, washed, incubated at 37° C. for 0, 2, 4 and 6 hours, and labeled with mAb BB7.2.

HLA-A*0201 [2] = molecular target: T1, HLA-A*0201; assay: T2 cell HLA-A*0201 stabilisation, flow cytometry with mAb BB7.2; peptide concentration / reference peptide concentration giving 20% HLA-A*0201 expression
Experimental: as §1

B1: TERT988Y (peptide)
peptide: YLQVNSLQTV
notes: also called optimized variant of the cryptic peptide TERT988
- DC50 (half-life of the HLA/peptide complex) (HLA-A*0201 [1]): > 6 h
- RA (relative affinity) (HLA-A*0201 [2]): 2.1 ratio to reference peptide HIVpol589 (reference = 1)

B2: MAGE-A248V9 (peptide)
peptide: YLEYRQVPV
notes: also called optimized variant of MAGE-A248D9/G9
- DC50 (half-life of the HLA/peptide complex) (HLA-A*0201 [1]): 4 h
- RA (relative affinity) (HLA-A*0201 [2]): 1.8 ratio to reference peptide HIVpol589 (reference = 1)

B3: HER-2/neu402Y (peptide)
peptide: YLEEITGYL
notes: also called optimized variant of the cryptic peptide HER-2/neu402
- DC50 (half-life of the HLA/peptide complex) (HLA-A*0201 [1]): 4 h
- RA (relative affinity) (HLA-A*0201 [2]): 3.6 ratio to reference peptide HIVpol589 (reference = 1)

Source: patent US20090130133A1 (VAXON BIOTECH, published 2009)
